In PMC3507203 (Biology Open, 2011):

Target: T1, GST-tagged KLHL18 (human, UniProt O94889 1-574)
T1 sequence (looked up): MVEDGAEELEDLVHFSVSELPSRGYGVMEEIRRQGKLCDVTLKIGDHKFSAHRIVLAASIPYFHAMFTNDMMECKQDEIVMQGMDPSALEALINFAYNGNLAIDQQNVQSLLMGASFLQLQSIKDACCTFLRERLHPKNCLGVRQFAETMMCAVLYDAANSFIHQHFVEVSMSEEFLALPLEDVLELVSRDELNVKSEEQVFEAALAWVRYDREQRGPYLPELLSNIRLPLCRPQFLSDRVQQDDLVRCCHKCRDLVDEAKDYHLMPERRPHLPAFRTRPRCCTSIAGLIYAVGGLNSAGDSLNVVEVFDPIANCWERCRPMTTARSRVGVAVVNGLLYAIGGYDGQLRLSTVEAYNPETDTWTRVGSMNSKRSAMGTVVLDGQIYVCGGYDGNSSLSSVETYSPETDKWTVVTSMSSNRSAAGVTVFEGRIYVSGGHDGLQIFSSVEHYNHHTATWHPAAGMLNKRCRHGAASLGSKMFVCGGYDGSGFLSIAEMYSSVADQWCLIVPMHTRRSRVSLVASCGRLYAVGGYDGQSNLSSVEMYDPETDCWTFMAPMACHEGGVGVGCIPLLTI
Assay: pull-down

binding result: binds
B1: histidine-tagged Aurora-A (natural protein, human, UniProt O14965 1-403, looked up)
chain: MDRSKENCISGPVKATAPVGGPKRVLVTQQFPCQNPLPVNSGQAQRVLCPSNSSQRIPLQAQKLVSSHKPVQNQKQKQLQATSVPHPVSRPLNNTQKSKQPLPSAPENNPEEELASKQKNEESKKRQWALEDFEIGRPLGKGKFGNVYLAREKQSKFILALKVLFKAQLEKAGVEHQLRREVEIQSHLRHPNILRLYGYFHDATRVYLILEYAPLGTVYRELQKLSKFDEQRTATYITELANALSYCHSKRVIHRDIKPENLLLGSAGELKIADFGWSVHAPSSRRTTLCGTLDYLPPEMIEGRMHDEKVDLWSLGVLCYEFLVGKPPFEANTYQETYKRISRVEFTFPDFVTEGARDLISRLLKHNPSQRPMLREVLEHPWITANSSKPSNCQNKESASKQS
